# Data taken from patent US10023484B2, “Use of peracetic acid/hydrogen peroxide and peroxide-reducing agents for treatment of drilling fluids, frac fluids, flowback water and disposal water” (Ecolab USA Inc., priority 2012, dated 2018).
# Columns and labels:
# [1] = POAA and H2O2 loss with NiMo peroxide-reducing agent (Example 20); assay type: physicochemical; details: 10 g NiMo
# From the text: (§1) Various additional inorganic metals and metal compounds were further evaluated for use as peroxide decomposition catalysts (e.g. peroxide-reducing agents) according to the methods of the invention. The metals were provided as solid catalysts to POAA solutions.
# [2] = POAA and H2O2 loss with NiW peroxide-reducing agent (Example 20); assay type: physicochemical; details: 10 g NiW
# From the text: as §1
# [3] = POAA and H2O2 loss with CoMo peroxide-reducing agent (Example 20); assay type: physicochemical; details: 10 g CoMo
# From the text: as §1
# [4] = POAA and H2O2 loss with Mo peroxide-reducing agent (Example 20); assay type: physicochemical; details: 10 g Mo
# From the text: as §1
# [5] = test system: produced water samples (planktonic bacteria); assay: Planktonic kill study, ATP quantification assay; assay type: cell-based; details: PAA/H2O2 25 ppm
# Method: Planktonic kill studies were performed as an evaluation of biocide efficiency for PAA/H2O2 and PAA/H2O2/Catalase applications. Briefly, produced water samples were used to test the kill efficiency of PAA/H2O2 at the following dosages: 25, 50, 75, 150 and 300 ppm PAA. Concentration of catalase was fixed at 1000 ppm. The contact time was set to 10 and 60 minutes. After contact time, bacterial enumeration was performed using ATP quantification assay. Bacterial enumeration was calculated at the end of the appropriate time and biocide efficacy determined by comparison to an untreated sample.
# [6] = Catalase (ES2000) amount needed in treated water source, iodometric titration (Example 15); assay type: physicochemical
# Method: Field of use applications were analyzed to determine the amount of a peroxide-reducing enzyme necessary to obtain desired concentrations of both peracid and hydrogen peroxide in a treated water source. EnviroSan (POAA) peracid composition was added to water to reach the targeted POAA concentrations set forth in Table 18, and the concentration of both POAA and H2O2 were confirmed by iodometric titration. Then catalase (ES2000) was added to the solution, and the sample was stored under ambient conditions. The concentration of POAA and H2O2 were monitored by the iodometric conditions.
# [7] = Field application of catalase (ES 2000) in pond water: room temperature, sunlight, shielded (Example 22); assay type: physicochemical
# Method: A field of use application was analyzed to determine efficacy of the peroxide-reducing catalase enzyme in pond waters under ambient conditions. Catalase (ES 2000) was used in a pond water source (370000 barrel (bbl.)) to reduce/eliminate H2O2 in a POAA peracid composition. The pond water when sampled contained both POAA and H2O2. The treatments analyzed were based on established laboratory data, which at 1 ppm use level selectively eliminated H2O2 to zero within 4 hours. […] Therefore, 100 gram samples of the pond water were used to add various levels of either 1 ppm catalase (Table 33) or 2 ppm catalase (Table 34).
# The samples were then stored at various conditions identified: ambient room temperature, outside under sunlight, outside shielded from sunlight. The level of hydrogen peroxide was assayed at various times (shown at 0 hours and 2 hours) to check the functionality of the catalase peroxide-reducing agent. As referred to in the Tables, the following measurements are set forth as follows: EP1 V (ml 0.05N Na2S2O3) and EP2 V (ml 0.05N Na2S2O3).
# [8] = Hydrogen peroxide reduction by catalase in 2%, 3%, 5% peracid compositions, iodometric assay (Example 13); assay type: physicochemical
# Method: The concentration of peracid compositions was evaluated to determine the peroxide-reducing capability of enzymes. A catalase enzyme was evaluated for efficacy in reducing hydrogen peroxide at varying concentrations under increasingly concentrated peracid compositions. The commercially-available peracid (POAA) composition EnviroSan (Ecolab, Inc., St. Paul, Minn.) was evaluated using catalase enzymes added to 2%, 3%, and 5% peracid compositions. The catalase enzymes were added to the POAA solution and gently stirred under ambient conditions. After the addition of catalase, the stirring was discontinued, and the samples were taken for iodometric assay.
# [9] = 0.5 ppm catalase, series starting at 14.6 ppm POAA, 0 hr
# [10] = 0.5 ppm catalase, series starting at 14.6 ppm POAA, 1 hr
# [11] = 0.5 ppm catalase, series starting at 14.6 ppm POAA, 2 hr
# [12] = 0.5 ppm catalase, series starting at 14.6 ppm POAA, 3.6 hr
# [13] = 0.5 ppm catalase, series starting at 31.1 ppm POAA, 0 hr
# [14] = 0.5 ppm catalase, series starting at 31.1 ppm POAA, 1 hr
# [15] = 0.5 ppm catalase, series starting at 31.1 ppm POAA, 2 hr
# [16] = 0.5 ppm catalase, series starting at 31.1 ppm POAA, 3.6 hr
# [17] = 1.0 ppm catalase, series starting at 14.8 ppm POAA, 0 hr
# [18] = 1.0 ppm catalase, series starting at 14.8 ppm POAA, 1 hr
# [19] = 1.0 ppm catalase, series starting at 14.8 ppm POAA, 2 hr
# [20] = 1.0 ppm catalase, series starting at 14.8 ppm POAA, 3.6 hr
# [21] = 1.0 ppm catalase, series starting at 30.1 ppm POAA, 0 hr
# [22] = 1.0 ppm catalase, series starting at 30.1 ppm POAA, 1 hr
# [23] = 1.0 ppm catalase, series starting at 30.1 ppm POAA, 2 hr
# [24] = 1.0 ppm catalase, series starting at 30.1 ppm POAA, 3.6 hr
# [25] = 1 ppm catalase, Ambient Room, Time 0.00 hr
# [26] = 1 ppm catalase, Ambient Room, Time 2.00 hr
# [27] = 1 ppm catalase, Outside shield from the sunlight, Time 0.00 hr
# [28] = 1 ppm catalase, Outside shield from the sunlight, Time 2.00 hr
# [29] = 1 ppm catalase, Outside under the sunlight, Time 0.00 hr
# [30] = 1 ppm catalase, Outside under the sunlight, Time 2.00 hr
# [31] = 2 ppm catalase, Ambient Room, Time 0.00 hr
# [32] = 2 ppm catalase, Ambient Room, Time 2.00 hr
# [33] = 2 ppm catalase, Outside shield from the sunlight, Time 0.00 hr
# [34] = 2 ppm catalase, Outside shield from the sunlight, Time 2.00 hr
# [35] = 2 ppm catalase, Outside under the sunlight, Time 0.00 hr
# [36] = 2 ppm catalase, Outside under the sunlight, Time 2.00 hr
# [37] = 2% POAA, 1500 ppm Catalase, 0 min.
# [38] = 2% POAA, 1500 ppm Catalase, 6.5 min.
# [39] = 3% POAA, 1500 ppm Catalase, 0 min.
# [40] = 3% POAA, 1500 ppm Catalase, 6.5 min.
# [41] = 3% POAA, 1500 ppm Catalase, 10 min.
# [42] = 3% POAA, 1500 ppm Catalase, 15 min.
# [43] = 3% POAA, 2500 ppm Catalase, 0 min.
# [44] = 3% POAA, 2500 ppm Catalase, 6.5 min.
# [45] = 3% POAA, 2500 ppm Catalase, 10 min.
# [46] = 3% POAA, 2500 ppm Catalase, 15 min.
# [47] = 5% POAA, 1500 ppm Catalase, 0 min.
# [48] = 5% POAA, 1500 ppm Catalase, 6.5 min.
molecule,measurement,setting,value
OO [H2O2],H2O2 Concentration,[1]; Time 0,1615
same,H2O2 Concentration,[1]; Time 15,1581
same,H2O2 Concentration,[1]; Time 30,1555.5
same,H2O2 Concentration,[1]; Time 45,1530
same,H2O2 Concentration,[1]; Time 60,1496
same,H2O2 Concentration,[2]; Time 0,1615
same,H2O2 Concentration,[2]; Time 15,1581
same,H2O2 Concentration,[2]; Time 30,1598
same,H2O2 Concentration,[2]; Time 45,1615
same,H2O2 Concentration,[2]; Time 60,1615
same,H2O2 Concentration,[3]; Time 0,1615
same,H2O2 Concentration,[3]; Time 15,1343
same,H2O2 Concentration,[3]; Time 30,1156
same,H2O2 Concentration,[3]; Time 45,994.5
same,H2O2 Concentration,[3]; Time 60,841.5
same,H2O2 Concentration,[4]; Time 0,1615
same,H2O2 Concentration,[4]; Time 15,1334.5
same,H2O2 Concentration,[4]; Time 30,1181.5
same,H2O2 Concentration,[4]; Time 45,986
same,H2O2 Concentration,[4]; Time 60,841.5
Catalase,increase of biocide efficiency by addition of 1000 ppm catalase,[5]; after 10 minutes,48%
same,increase of biocide efficiency by addition of 1000 ppm catalase,[5]; after 60 minutes,23%
same,H2O2 (ppm),[6]; [9],12.0 ppm
same,POAA (ppm),[6]; [9],14.6 ppm
same,H2O2 (ppm),[6]; [10],7.5 ppm
same,POAA (ppm),[6]; [10],15.0 ppm
same,H2O2 (ppm),[6]; [11],6.5 ppm
same,POAA (ppm),[6]; [11],14.3 ppm
same,H2O2 (ppm),[6]; [12],1.8 ppm
same,POAA (ppm),[6]; [12],14.2 ppm
same,H2O2 (ppm),[6]; [13],22.8 ppm
same,POAA (ppm),[6]; [13],31.1 ppm
same,H2O2 (ppm),[6]; [14],12.2 ppm
same,POAA (ppm),[6]; [14],32.0 ppm
same,H2O2 (ppm),[6]; [15],7.8 ppm
same,POAA (ppm),[6]; [15],29.2 ppm
same,H2O2 (ppm),[6]; [16],3.4 ppm
same,POAA (ppm),[6]; [16],30.6 ppm
same,H2O2 (ppm),[6]; [17],12.6 ppm
same,POAA (ppm),[6]; [17],14.8 ppm
same,H2O2 (ppm),[6]; [18],3.7 ppm
same,POAA (ppm),[6]; [18],14.6 ppm
same,H2O2 (ppm),[6]; [19],1.1 ppm
same,POAA (ppm),[6]; [19],14.2 ppm
same,H2O2 (ppm),[6]; [20],0.4 ppm
same,POAA (ppm),[6]; [20],15.9 ppm
same,H2O2 (ppm),[6]; [21],23.3 ppm
same,POAA (ppm),[6]; [21],30.1 ppm
same,H2O2 (ppm),[6]; [22],7.6 ppm
same,POAA (ppm),[6]; [22],31.0 ppm
same,H2O2 (ppm),[6]; [23],2.3 ppm
same,POAA (ppm),[6]; [23],29.6 ppm
same,H2O2 (ppm),[6]; [24],0.0 ppm
same,POAA (ppm),[6]; [24],29.3 ppm
same,H2O2,[7]; [25],6.8 ppm
same,POAA,[7]; [25],5.7 ppm
same,H2O2,[7]; [26],1.3 ppm
same,POAA,[7]; [26],5.7 ppm
same,H2O2,[7]; [27],6.8 ppm
same,POAA,[7]; [27],5.7 ppm
same,H2O2,[7]; [28],0.9 ppm
same,POAA,[7]; [28],5.7 ppm
same,H2O2,[7]; [29],6.8 ppm
same,POAA,[7]; [29],5.7 ppm
same,H2O2,[7]; [30],6.8 ppm
same,POAA,[7]; [30],4.75 ppm
same,H2O2,[7]; [31],6.8 ppm
same,POAA,[7]; [31],5.7 ppm
same,H2O2,[7]; [32],0.0 ppm
same,POAA,[7]; [32],5.7 ppm
same,H2O2,[7]; [33],6.8 ppm
same,POAA,[7]; [33],5.7 ppm
same,H2O2,[7]; [34],0.0 ppm
same,POAA,[7]; [34],5.7 ppm
same,H2O2,[7]; [35],6.8 ppm
same,POAA,[7]; [35],5.7 ppm
same,H2O2,[7]; [36],4.3 ppm
same,POAA,[7]; [36],4.75 ppm
same,H2O2,[8]; [37],1.36% H2O2
same,POAA,[8]; [37],2.0% POAA
same,H2O2,[8]; [38],0.08% H2O2
same,POAA,[8]; [38],2.05% POAA
same,H2O2,[8]; [39],2.04% H2O2
same,POAA,[8]; [39],3.0% POAA
same,H2O2,[8]; [40],0.33% H2O2
same,POAA,[8]; [40],2.97% POAA
same,H2O2,[8]; [41],0.23% H2O2
same,POAA,[8]; [41],2.83% POAA
same,H2O2,[8]; [42],0.21% H2O2
same,POAA,[8]; [42],2.95% POAA
same,H2O2,[8]; [43],2.04% H2O2
same,POAA,[8]; [43],2.0% POAA
same,H2O2,[8]; [44],0.33% H2O2
same,POAA,[8]; [44],2.99% POAA
same,H2O2,[8]; [45],0.23% H2O2
same,POAA,[8]; [45],2.95% POAA
same,H2O2,[8]; [46],0.21% H2O3
same,POAA,[8]; [46],2.87% POAA
same,H2O2,[8]; [47],3.40% H2O2
same,POAA,[8]; [47],5.0% POAA
same,H2O2,[8]; [48],3.81% H2O2
same,POAA,[8]; [48],4.96% POAA
